# Target: T1, PUF4 RNA-binding domain (Saccharomyces cerevisiae, UniProt P25339 537-888)
# T1 sequence: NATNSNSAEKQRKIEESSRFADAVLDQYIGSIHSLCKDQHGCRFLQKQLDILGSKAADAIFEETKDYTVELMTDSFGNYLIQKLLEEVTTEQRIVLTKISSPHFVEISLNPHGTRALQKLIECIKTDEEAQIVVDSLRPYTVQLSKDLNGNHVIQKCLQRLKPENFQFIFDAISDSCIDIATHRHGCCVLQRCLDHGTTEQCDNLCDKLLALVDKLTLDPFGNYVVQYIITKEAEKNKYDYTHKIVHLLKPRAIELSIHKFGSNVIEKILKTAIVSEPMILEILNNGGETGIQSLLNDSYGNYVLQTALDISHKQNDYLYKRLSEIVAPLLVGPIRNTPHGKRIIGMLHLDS
# Assay: Mg; RNA-MaP; 20 mM Na-HEPES pH 7.4, 30 mM KOAc, 0.75 mM MgCl2, 0.1% Tween-20, 5% glycerol, 0.1 mg/mL BSA, 2 mM DTT; 25 C; 0.0125-409.6 nM protein
# Details: tags: N-His6-TEV cleaved; C-SNAP kept, Cy3B-labelled; label: tethered on chip by stalled RNA polymerase
row,Binder,Kd [nM]
1,UCUCUUACACACUAUAUUUCUCUU (ssRNA) [Id_ii_S1_P3E.4_K3.3_C3.2_[C-2A]_[T-1C]_H3.3_A3.1_F3.1_T3.2_[A10T]],> 2300
2,UCUCUUGCACACUAUACUUCUCUU (ssRNA) [Id_ii_S1_P3E.4_K3.3_C3.2_[C-2G]_[T-1C]_H3.3_A3.1_F3.1_T3.2_[T9C]_[A10T]],122
3,UCUCUUAUACACUAUAUUUCUCUU (ssRNA) [Id_ii_S1_P3E.4_K3.3_C3.2_[C-2A]_H3.3_A3.1_F3.1_T3.2_[A10T]],38.6
4,UCUCUUUAUAUCUUAUCUCUU (ssRNA) [Ib_S1_P4E.1_K4.1_C4.1_H4.1_[G2A]_A4.1_[A6C]_F4.1_T4.1],672
5,UCUCUUAGACACUAUAUUUCUCUU (ssRNA) [Id_ii_S1_P3E.4_K3.3_C3.2_[C-2A]_[T-1G]_H3.3_A3.1_F3.1_T3.2_[A10T]],> 2300
6,UCUCUUUAUAUGUUAUCUCUU (ssRNA) [Ib_S1_P4E.1_K4.1_C4.1_H4.1_[G2A]_A4.1_[A6G]_F4.1_T4.1],635
7,UCUCUUGUACACUAUAUCUCUCUU (ssRNA) [Id_ii_S1_P3E.4_K3.3_C3.2_[C-2G]_H3.3_A3.1_F3.1_T3.2_[A10C]],0.836
8,UCUCUUAGACACUAUACCUCUCUU (ssRNA) [Id_ii_S1_P3E.4_K3.3_C3.2_[C-2A]_[T-1G]_H3.3_A3.1_F3.1_T3.2_[T9C]_[A10C]],> 2300
9,UCUCUUAAACACUAUAGCUCUCUU (ssRNA) [Id_ii_S1_P3E.4_K3.3_C3.2_[C-2A]_[T-1A]_H3.3_A3.1_F3.1_T3.2_[T9G]_[A10C]],> 2300
10,UCUCUUUGUAUAGUAUCUCUU (ssRNA) [Ia_S1_P4E.1_K4.1_C4.1_H4.1_A4.1_[T7G]_F4.1_T4.1],2.25
11,UCUCUUUAUAUUUUAUCUCUU (ssRNA) [Ib_S1_P4E.1_K4.1_C4.1_H4.1_[G2A]_A4.1_[A6T]_F4.1_T4.1],163
12,UCUCUUUUACACUAUACUUCUCUU (ssRNA) [Id_ii_S1_P3E.4_K3.3_C3.2_[C-2T]_H3.3_A3.1_F3.1_T3.2_[T9C]_[A10T]],1220
13,UCUCUUACACACUAUAGAUCUCUU (ssRNA) [Id_ii_S1_P3E.4_K3.3_C3.2_[C-2A]_[T-1C]_H3.3_A3.1_F3.1_T3.2_[T9G]],> 2300
14,UCUCUUAUACACUAUACUUCUCUU (ssRNA) [Id_ii_S1_P3E.4_K3.3_C3.2_[C-2A]_H3.3_A3.1_F3.1_T3.2_[T9C]_[A10T]],36.1
15,UCUCUUAUACACUAUAACUCUCUU (ssRNA) [Id_ii_S1_P3E.4_K3.3_C3.2_[C-2A]_H3.3_A3.1_F3.1_T3.2_[T9A]_[A10C]],46.2
16,UCUCUUGUACACUAUAUAUCUCUU (ssRNA) [Id_ii_S1_P3E.4_K3.3_C3.2_[C-2G]_H3.3_A3.1_F3.1_T3.2],0.819
17,UCUCUUUUACACUAUAAUUCUCUU (ssRNA) [Id_ii_S1_P3E.4_K3.3_C3.2_[C-2T]_H3.3_A3.1_F3.1_T3.2_[T9A]_[A10T]],> 2300
18,UCUCUUUUACACUAUAAGUCUCUU (ssRNA) [Id_ii_S1_P3E.4_K3.3_C3.2_[C-2T]_H3.3_A3.1_F3.1_T3.2_[T9A]_[A10G]],1520
19,UCUCUUUGACACUAUAAUUCUCUU (ssRNA) [Id_ii_S1_P3E.4_K3.3_C3.2_[C-2T]_[T-1G]_H3.3_A3.1_F3.1_T3.2_[T9A]_[A10T]],> 2300
20,UCUCUUGUACACUAUAUUUCUCUU (ssRNA) [Id_ii_S1_P3E.4_K3.3_C3.2_[C-2G]_H3.3_A3.1_F3.1_T3.2_[A10T]],0.901
21,UCUCUUAUACACUAUAAUUCUCUU (ssRNA) [Id_ii_S1_P3E.4_K3.3_C3.2_[C-2A]_H3.3_A3.1_F3.1_T3.2_[T9A]_[A10T]],43.5

row,Binder,Kd [nM]
1,UCUCUUUCACACUAUAAAUCUCUU (ssRNA) [Id_ii_S1_P3E.4_K3.3_C3.2_[C-2T]_[T-1C]_H3.3_A3.1_F3.1_T3.2_[T9A]],> 2300
2,UCUCUUGCACACUAUAUUUCUCUU (ssRNA) [Id_ii_S1_P3E.4_K3.3_C3.2_[C-2G]_[T-1C]_H3.3_A3.1_F3.1_T3.2_[A10T]],94.8
3,UCUCUUAAACACUAUACAUCUCUU (ssRNA) [Id_ii_S1_P3E.4_K3.3_C3.2_[C-2A]_[T-1A]_H3.3_A3.1_F3.1_T3.2_[T9C]],> 2300
4,UCUCUUUGACACUAUAAAUCUCUU (ssRNA) [Id_ii_S1_P3E.4_K3.3_C3.2_[C-2T]_[T-1G]_H3.3_A3.1_F3.1_T3.2_[T9A]],> 2300
5,UCUCUUAUACACUAUACAUCUCUU (ssRNA) [Id_ii_S1_P3E.4_K3.3_C3.2_[C-2A]_H3.3_A3.1_F3.1_T3.2_[T9C]],34.9
6,UCUCUUAGACACUAUACAUCUCUU (ssRNA) [Id_ii_S1_P3E.4_K3.3_C3.2_[C-2A]_[T-1G]_H3.3_A3.1_F3.1_T3.2_[T9C]],> 2300
7,UCUCUUUUACACUAUAUGUCUCUU (ssRNA) [Id_ii_S1_P3E.4_K3.3_C3.2_[C-2T]_H3.3_A3.1_F3.1_T3.2_[A10G]],2220
8,UCUCUUUUUAUUUUAUCUCUU (ssRNA) [Ib_S1_P4E.1_K4.1_C4.1_H4.1_[G2T]_A4.1_[A6T]_F4.1_T4.1],> 2300
9,UCUCUUAUACACUAUACGUCUCUU (ssRNA) [Id_ii_S1_P3E.4_K3.3_C3.2_[C-2A]_H3.3_A3.1_F3.1_T3.2_[T9C]_[A10G]],74.5
10,UCUCUUGCACACUAUACCUCUCUU (ssRNA) [Id_ii_S1_P3E.4_K3.3_C3.2_[C-2G]_[T-1C]_H3.3_A3.1_F3.1_T3.2_[T9C]_[A10C]],278
11,UCUCUUGCACACUAUAACUCUCUU (ssRNA) [Id_ii_S1_P3E.4_K3.3_C3.2_[C-2G]_[T-1C]_H3.3_A3.1_F3.1_T3.2_[T9A]_[A10C]],110
12,UCUCUUUUACACUAUACGUCUCUU (ssRNA) [Id_ii_S1_P3E.4_K3.3_C3.2_[C-2T]_H3.3_A3.1_F3.1_T3.2_[T9C]_[A10G]],2060
13,UCUCUUUCACACUAUACCUCUCUU (ssRNA) [Id_ii_S1_P3E.4_K3.3_C3.2_[C-2T]_[T-1C]_H3.3_A3.1_F3.1_T3.2_[T9C]_[A10C]],> 2300
14,UCUCUUUUACACUAUACCUCUCUU (ssRNA) [Id_ii_S1_P3E.4_K3.3_C3.2_[C-2T]_H3.3_A3.1_F3.1_T3.2_[T9C]_[A10C]],1910
15,UCUCUUACACACUAUAGUUCUCUU (ssRNA) [Id_ii_S1_P3E.4_K3.3_C3.2_[C-2A]_[T-1C]_H3.3_A3.1_F3.1_T3.2_[T9G]_[A10T]],> 2300
16,UCUCUUUCACACUAUAUUUCUCUU (ssRNA) [Id_ii_S1_P3E.4_K3.3_C3.2_[C-2T]_[T-1C]_H3.3_A3.1_F3.1_T3.2_[A10T]],> 2300
17,UCUCUUACACACUAUAACUCUCUU (ssRNA) [Id_ii_S1_P3E.4_K3.3_C3.2_[C-2A]_[T-1C]_H3.3_A3.1_F3.1_T3.2_[T9A]_[A10C]],> 2300
18,UCUCUUAAACACUAUAUUUCUCUU (ssRNA) [Id_ii_S1_P3E.4_K3.3_C3.2_[C-2A]_[T-1A]_H3.3_A3.1_F3.1_T3.2_[A10T]],> 2300
19,UCUCUUAAACACUAUAACUCUCUU (ssRNA) [Id_ii_S1_P3E.4_K3.3_C3.2_[C-2A]_[T-1A]_H3.3_A3.1_F3.1_T3.2_[T9A]_[A10C]],> 2300
20,UCUCUUUUACACUAUAUAUCUCUU (ssRNA) [Id_ii_S1_P3E.4_K3.3_C3.2_[C-2T]_H3.3_A3.1_F3.1_T3.2],1030
21,UCUCUUUAACACUAUACGUCUCUU (ssRNA) [Id_ii_S1_P3E.4_K3.3_C3.2_[C-2T]_[T-1A]_H3.3_A3.1_F3.1_T3.2_[T9C]_[A10G]],> 2300

row,Binder,Kd [nM]
1,UCUCUUAGACACUAUAUCUCUCUU (ssRNA) [Id_ii_S1_P3E.4_K3.3_C3.2_[C-2A]_[T-1G]_H3.3_A3.1_F3.1_T3.2_[A10C]],> 2300
2,UCUCUUAGACACUAUAAUUCUCUU (ssRNA) [Id_ii_S1_P3E.4_K3.3_C3.2_[C-2A]_[T-1G]_H3.3_A3.1_F3.1_T3.2_[T9A]_[A10T]],> 2300
3,UCUCUUCGACACUAUAGCUCUCUU (ssRNA) [Id_ii_S1_P3E.4_K3.3_C3.2_[T-1G]_H3.3_A3.1_F3.1_T3.2_[T9G]_[A10C]],> 2300
4,UCUCUUUUACACUAUAGCUCUCUU (ssRNA) [Id_ii_S1_P3E.4_K3.3_C3.2_[C-2T]_H3.3_A3.1_F3.1_T3.2_[T9G]_[A10C]],> 2300
5,UCUCUUAUACACUAUACCUCUCUU (ssRNA) [Id_ii_S1_P3E.4_K3.3_C3.2_[C-2A]_H3.3_A3.1_F3.1_T3.2_[T9C]_[A10C]],30.1
6,UCUCUUUGACACUAUACAUCUCUU (ssRNA) [Id_ii_S1_P3E.4_K3.3_C3.2_[C-2T]_[T-1G]_H3.3_A3.1_F3.1_T3.2_[T9C]],> 2300
7,UCUCUUUUUAUAGUAUCUCUU (ssRNA) [Ib_S1_P4E.1_K4.1_C4.1_H4.1_[G2T]_A4.1_[T7G]_F4.1_T4.1],> 2300
8,UCUCUUGUACACUAUAACUCUCUU (ssRNA) [Id_ii_S1_P3E.4_K3.3_C3.2_[C-2G]_H3.3_A3.1_F3.1_T3.2_[T9A]_[A10C]],1.63
9,UCUCUUCGACACUAUACUUCUCUU (ssRNA) [Id_ii_S1_P3E.4_K3.3_C3.2_[T-1G]_H3.3_A3.1_F3.1_T3.2_[T9C]_[A10T]],> 2300
10,UCUCUUAUACACUAUAUCUCUCUU (ssRNA) [Id_ii_S1_P3E.4_K3.3_C3.2_[C-2A]_H3.3_A3.1_F3.1_T3.2_[A10C]],40.6
11,UCUCUUUUACACUAUACAUCUCUU (ssRNA) [Id_ii_S1_P3E.4_K3.3_C3.2_[C-2T]_H3.3_A3.1_F3.1_T3.2_[T9C]],1140
12,UCUCUUUCACACUAUAAUUCUCUU (ssRNA) [Id_ii_S1_P3E.4_K3.3_C3.2_[C-2T]_[T-1C]_H3.3_A3.1_F3.1_T3.2_[T9A]_[A10T]],> 2300
13,UCUCUUAAACACUAUAAAUCUCUU (ssRNA) [Id_ii_S1_P3E.4_K3.3_C3.2_[C-2A]_[T-1A]_H3.3_A3.1_F3.1_T3.2_[T9A]],> 2300
14,UCUCUUGUACACUAUACCUCUCUU (ssRNA) [Id_ii_S1_P3E.4_K3.3_C3.2_[C-2G]_H3.3_A3.1_F3.1_T3.2_[T9C]_[A10C]],0.984
15,UCUCUUCGACACUAUAACUCUCUU (ssRNA) [Id_ii_S1_P3E.4_K3.3_C3.2_[T-1G]_H3.3_A3.1_F3.1_T3.2_[T9A]_[A10C]],> 2300
16,UCUCUUAGACACUAUAAAUCUCUU (ssRNA) [Id_ii_S1_P3E.4_K3.3_C3.2_[C-2A]_[T-1G]_H3.3_A3.1_F3.1_T3.2_[T9A]],> 2300
17,UCUCUUGUACACUAUAAUUCUCUU (ssRNA) [Id_ii_S1_P3E.4_K3.3_C3.2_[C-2G]_H3.3_A3.1_F3.1_T3.2_[T9A]_[A10T]],1.16
18,UCUCUUUUACACUAUAUCUCUCUU (ssRNA) [Id_ii_S1_P3E.4_K3.3_C3.2_[C-2T]_H3.3_A3.1_F3.1_T3.2_[A10C]],1380
19,UCUCUUAUACACUAUAGCUCUCUU (ssRNA) [Id_ii_S1_P3E.4_K3.3_C3.2_[C-2A]_H3.3_A3.1_F3.1_T3.2_[T9G]_[A10C]],45.7
20,UCUCUUAUACACUAUAUAUCUCUU (ssRNA) [Id_ii_S1_P3E.4_K3.3_C3.2_[C-2A]_H3.3_A3.1_F3.1_T3.2],31.3
21,UCUCUUGCACACUAUACAUCUCUU (ssRNA) [Id_ii_S1_P3E.4_K3.3_C3.2_[C-2G]_[T-1C]_H3.3_A3.1_F3.1_T3.2_[T9C]],275
